Reference: patent publication US20080214461
Positions count from the first letter of the chain named. In names and notes the source's numbering stands.

T1: activated factor VIII (FVIIIa): Recombinate Antihemophilic Factor activated with thrombin, P00451
T1 chain: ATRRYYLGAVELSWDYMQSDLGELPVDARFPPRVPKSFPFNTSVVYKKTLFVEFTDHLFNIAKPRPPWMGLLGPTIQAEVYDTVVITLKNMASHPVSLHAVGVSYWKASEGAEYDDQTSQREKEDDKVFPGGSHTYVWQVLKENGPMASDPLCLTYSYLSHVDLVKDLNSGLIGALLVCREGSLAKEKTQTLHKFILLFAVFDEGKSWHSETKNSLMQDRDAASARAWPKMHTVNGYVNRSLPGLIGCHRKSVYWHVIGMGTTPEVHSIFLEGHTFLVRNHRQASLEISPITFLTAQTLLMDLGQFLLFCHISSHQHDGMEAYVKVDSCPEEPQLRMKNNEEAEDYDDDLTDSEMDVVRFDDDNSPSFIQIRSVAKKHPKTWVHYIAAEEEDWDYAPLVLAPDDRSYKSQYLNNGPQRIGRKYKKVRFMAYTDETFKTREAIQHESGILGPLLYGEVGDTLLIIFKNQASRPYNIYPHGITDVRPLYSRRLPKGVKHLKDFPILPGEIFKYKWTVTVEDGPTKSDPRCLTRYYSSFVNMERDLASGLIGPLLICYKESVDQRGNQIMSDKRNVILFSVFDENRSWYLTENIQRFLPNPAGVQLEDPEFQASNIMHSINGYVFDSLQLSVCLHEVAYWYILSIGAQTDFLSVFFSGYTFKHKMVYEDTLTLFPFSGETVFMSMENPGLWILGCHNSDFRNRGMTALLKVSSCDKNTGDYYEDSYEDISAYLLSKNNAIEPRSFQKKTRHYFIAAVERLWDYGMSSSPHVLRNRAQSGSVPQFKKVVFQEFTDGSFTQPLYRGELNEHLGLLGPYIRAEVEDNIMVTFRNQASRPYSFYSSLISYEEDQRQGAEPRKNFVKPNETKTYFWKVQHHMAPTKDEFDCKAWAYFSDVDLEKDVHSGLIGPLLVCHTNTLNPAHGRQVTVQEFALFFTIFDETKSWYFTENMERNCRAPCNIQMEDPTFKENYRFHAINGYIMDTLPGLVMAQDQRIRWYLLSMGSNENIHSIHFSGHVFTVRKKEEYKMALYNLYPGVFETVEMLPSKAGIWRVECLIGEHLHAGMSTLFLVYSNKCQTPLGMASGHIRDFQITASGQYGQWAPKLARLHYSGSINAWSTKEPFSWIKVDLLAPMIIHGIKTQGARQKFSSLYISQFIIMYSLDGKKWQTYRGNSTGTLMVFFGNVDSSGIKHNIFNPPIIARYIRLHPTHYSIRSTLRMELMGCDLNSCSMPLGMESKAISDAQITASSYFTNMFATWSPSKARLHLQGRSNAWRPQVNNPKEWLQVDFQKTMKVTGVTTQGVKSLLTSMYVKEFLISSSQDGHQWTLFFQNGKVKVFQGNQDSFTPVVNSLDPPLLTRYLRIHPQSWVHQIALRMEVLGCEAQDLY

B1: FIX-Y94F/K98T/Y177F (recombinant, full length, HEK 293), activated form (protein)
chain: YNSGKLEEFVQGNLERECMEEKCSFEEAREVFENTERTTEFWKQYVDGDQCESNPCLNGGSCKDDINSYECWCPFGFEGKNCELDVTCNIKNGRCEQFCKNSADNKVVCSCTEGYRLAENQKSCEPAVPFPCGRVSVSQTSKLTRAEAVFPDVDYVNSTEAETILDNITQSTQSFNDFTRVVGGEDAKPGQFPWQVVLNGKVDAFCGGSIVNEKWIVTAAHCVETGVKITVVAGEHNIEETEHTEQKRNVIRIIPHHNFNAAINTYNHDIALLELDEPLVLNSYVTPICIADKEYTNIFLKFGSGYVSGWGRVFHKGRSALVLQYLRVPLVDRATCLRSTKFTIFNNMFCAGFHEGGRDSCQGDSGGPHVTEVEGTSFLTGIISWGEECAMKGKYGIYTKVSRYVNWIKEKTKLT
B2: FIX-Y94F/K98T/Y177F/I213V/E219G (recombinant, full length, HEK 293), activated form (protein)
chain: B1 chain with I383V, E388G
B3: FIX-Y94F/A95aK/K98T/Y177F/I213V/E219G (recombinant, full length, HEK 293), activated form (protein)
chain: B1 chain with A261K, I383V, E388G
B4: FIX-Y94F/A95aK/K98T/Y177F (recombinant, full length, HEK 293), activated form (protein)
chain: B1 chain with A261K

How the values were obtained:
[1] = target: factor X (FX), P00742
factor X (FX), P00742, sequence (P00742 whole entry, looked up): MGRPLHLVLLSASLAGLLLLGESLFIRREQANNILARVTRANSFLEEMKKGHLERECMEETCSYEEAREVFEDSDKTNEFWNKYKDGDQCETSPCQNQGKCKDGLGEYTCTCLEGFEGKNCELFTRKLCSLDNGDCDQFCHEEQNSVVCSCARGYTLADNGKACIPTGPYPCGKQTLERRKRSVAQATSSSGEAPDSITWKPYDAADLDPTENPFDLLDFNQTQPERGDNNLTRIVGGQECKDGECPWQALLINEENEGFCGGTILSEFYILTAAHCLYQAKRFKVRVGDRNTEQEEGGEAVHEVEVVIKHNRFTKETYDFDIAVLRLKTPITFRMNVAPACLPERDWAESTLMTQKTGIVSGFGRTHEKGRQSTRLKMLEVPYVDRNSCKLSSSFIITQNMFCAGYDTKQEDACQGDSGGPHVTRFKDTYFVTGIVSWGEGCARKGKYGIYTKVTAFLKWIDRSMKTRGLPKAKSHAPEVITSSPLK

[2] = target: T1, activated factor VIII (FVIIIa): …

Row | Protein | KM (nM), FX activation with FVIIIa [1] [nM] | KM (nM), FX activation without FVIIIa [1] [nM] | kcat (10^-3 min^-1), FX activation without FVIIIa [1] [s⁻¹] | kcat (min^-1), FX activation with FVIIIa [1] [min⁻¹] | kcat/KM (10^-6 nM^-1 min^-1), FX activation without FVIIIa [1] [M⁻¹ s⁻¹] | kcat/KM (nM^-1 min^-1), FX activation with FVIIIa [1] [M⁻¹ s⁻¹] | rate of FX activation against pdFIXa [1] | ratio kcat/KM +/- FVIIIa (FX activation) [2] | fold increase of kcat of FX activation against pdFIX [1]
1 | B1 | 14 | 68 | 0.000333 | 68 | 4880 | 8.33e+07 | FIX-WT and FIX-Y94F/K98T/Y177F activated FX at the same rate as pdFIXa | 16,424 | –
2 | B2 | 17 | 40 | 0.00222 | 528 | 54900 | 5.33e+08 | – | 9,581 | enhanced the kcat by a factor of 17 and 6, respectively
3 | B3 | 13 | 55 | 0.00102 | 122 | 18200 | 1.5e+08 | – | 8,354 | enhanced the kcat by a factor of 17 and 6, respectively
4 | B4 | 20 | 73 | 6.67e-05 | 7 | 950 | – | – | 5,705 | –
